For this experiment, the target named is CFP/B-Lc (BoNT/B protease fused to CFP) (Clostridium botulinum, BoNT type B; …, UniProt P10844). Kind of experiment: pull-down.

Data on one molecule can be found in publication PMC2946066 (Toxicon : official journal of the International Society on …, 2010).

B1: YFP/B10 (VHH BLc-B10 fused to an amino terminal streptavidin binding peptide and YFP) (VHH)
VHH: QLQLVESGGGMVQPGGSLRLSCAASGFTFSTYDMSWVRQAPGKGPEWVSIINAGGGSTYYAASVKGRFAISRDNAKNTLYLQMNNLKPEDTALYYCARVASYYCRGYVCSPPEFDYWGQGTQVTVSS
For the molecule B1, the binding result was “binds”.
